The record followed here is the supplement of paper PMC5998384.

Series [1] deals with HeLa Kyoto. Briefly: melting temperature (median over replicates), in situ; higher = more thermally stable.
In series [2] the test system is HeLa Kyoto. In words: solubility change mitosis vs G1/S (difference of NP-40 vs SDS log2 ratios) (log2 ratio difference); higher = more soluble in mitosis.
Series [3] relates to HeLa Kyoto. Briefly: thermal stability score vs G1/S (z-score of summed log2 fold changes over temperatures); higher = more thermally stable than in G1/S.
The subject of series [4] is HeLa Kyoto. In words: solubility in G1/S (NP-40 vs SDS abundance) (log2 ratio); higher = more soluble. The settings on record: cell cycle stage: G1/S.
Where [5] appears, read: cell cycle stage: early G1 (4.5 h after nocodazole release).
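Throughout, for melting temperature (median over replicates), in situ: HeLa Kyoto cells synchronized by double thymidine or nocodazole block, proteins quantified by TMT10plex mass spectrometry, three independent biological replicates.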
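Throughout, for solubility change mitosis vs G1/S (difference of NP-40 vs SDS log2 ratios): synchronized HeLa Kyoto cells (double thymidine block for G1/S, nocodazole release for mitosis), protein amounts in NP-40 versus SDS lysates quantified by mass spectrometry, three biological replicates.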
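Throughout, for solubility in G1/S (NP-40 vs SDS abundance): HeLa Kyoto cells arrested at G1/S by double thymidine block, proteins quantified by TMT10plex mass spectrometry in mild NP-40 versus SDS extracts, three biological replicates.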
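Throughout, for thermal stability score vs G1/S (z-score of summed log2 fold changes over temperatures): synchronized HeLa Kyoto cells, proteins quantified by TMT10plex mass spectrometry, three biological replicates, mitosis taken 0.5 h after nocodazole release, G1/S directly after double thymidine block.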

Turning to “MGTPQKDVIIKSDAPDTLLLEKHADYIASYGSKKDDYEYCMSEYLRMSGIYWGLTVMDLMGQLHRMNREEILAFIKSCQHECGGISASIGHDPHLLYTLSAVQILTLYDSINVIDVNKVVEYVKGLQKEDGSFAGDIWGEIDTRFSFCAVATLALLGKLDAINVEKAIEFVLSCMNFDGGFGCRPGSESHAGQIYCCTGFLAITSQLHQVNSDLLGWWLCERQLPSGGLNGRPEKLPDVCYSWWVLASLKIIGRLHWIDREKLRNFILACQDEETGGFADRPGDMVDPFHTLFGIAGLSLLGEEQIKPVNPVFCMPEEVLQRVNVQPELVS [RABGGTB]”, the values for the melting temperature in the series on HeLa Kyoto [1] (cell cycle stage: G1/S) and in the series on HeLa Kyoto [1] (cell cycle stage: mitosis) were 49.8 °C and 50.3 °C, respectively. The “solubility change mitosis (log2)” value in the series on HeLa Kyoto [2] was -0.347. The thermal stability score is -0.232 in the series with HeLa Kyoto [3] (setting [5]) and 1.64 in the series on HeLa Kyoto [3] (cell cycle stage: mitosis). Besides, in the series with HeLa Kyoto [4], the “solubility in G1/S (log2)” value was determined as 0.122.

As to “MLLPLLLLLPMCWAVEVKRPRGVSLTNHHFYDESKPFTCLDGSATIPFDQVNDDYCDCKDGSDEPGTAACPNGSFHCTNTGYKPLYIPSNRVNDGVCDCCDGTDEYNSGVICENTCKEKGRKERESLQQMAEVTREGFRLKKILIEDWKKAREEKQKKLIELQAGKKSLEDQVEMLRTVKEEAEKPEREAKEQHQKLWEEQLAAAKAQQEQELAADAFKELDDDMDGTVSVTELQTHPELDTDGDGALSEAEAQALLSGDTQTDATSFYDRVWAAIRDKYRSEALPTDLPAPSAPDLTEPKEEQPPVPSSPTEEEEEEEEEEEEEAEEEEEEEDSEEAPPPLSPPQPASPAEEDKMPPYDEQTQAFIDAAQEARNKFEEAERSLKDMEESIRNLEQEISFDFGPNGEFAYLYSQCYELTTNEYVYRLCPFKLVSQKPKLGGSPTSLGTWGSWIGPDHDKFSAMKYEQGTGCWQGPNRSTTVRLLCGKETMVTSTTEPSRCEYLMELMTPAACPEPPPEAPTEDDHDEL [PRKCSH]”, the melting temperature in the series on HeLa Kyoto [1] (cell cycle stage: G1/S) came out at 55 °C; in the series with HeLa Kyoto [1] (cell cycle stage: mitosis), 57.4 °C. In addition, in the series with HeLa Kyoto [2], the “solubility change mitosis (log2)” value is -0.0303. Also, the figures for the thermal stability score in the series on HeLa Kyoto [3] (setting [5]) and in the series on HeLa Kyoto [3] (cell cycle stage: mitosis) were 0.00878 and 0.443, respectively. In the series on HeLa Kyoto [4], the “solubility in G1/S (log2)” value was 0.337.

With “MDASLEKIADPTLAEMGKNLKEAVKMLEDSQRRTEEENGKKLISGDIPGPLQGSGQDMVSILQLVQNLMHGDEDEEPQSPRIQNIGEQGHMALLGHSLGAYISTLDKEKLRKLTTRILSDTTLWLCRIFRYENGCAYFHEEEREGLAKICRLAIHSRYEDFVVDGFNVLYNKKPVIYLSAAARPGLGQYLCNQLGLPFPCLCRVPCNTVFGSQHQMDVAFLEKLIKDDIERGRLPLLLVANAGTAAVGHTDKIGRLKELCEQYGIWLHVEGVNLATLALGYVSSSVLAAAKCDSMTMTPGPWLGLPAVPAVTLYKHDDPALTLVAGLTSNKPTDKLRALPLWLSLQYLGLDGFVERIKHACQLSQRLQESLKKVNYIKILVEDELSSPVVVFRFFQELPGSDPVFKAVPVPNMTPSGVGRERHSCDALNRWLGEQLKQLVPASGLTVMDLEAEGTCLRFSPLMTAAVLGTRGEDVDQLVACIESKLPVLCCTLQLREEFKQEVEATAGLLYVDDPNWSGIGVVRYEHANDDKSSLKSDPEGENIHAGLLKKLNELESDLTFKIGPEYKSMKSCLYVGMASDNVDAAELVETIAATAREIEENSRLLENMTEVVRKGIQEAQVELQKASEERLLEEGVLRQIPVVGSVLNWFSPVQALQKGRTFNLTAGSLESTEPIYVYKAQGAGVTLPPTPSGSRTKQRLPGQKPFKRSLRGSDALSETSSVSHIEDLEKVERLSSGPEQITLEASSTEGHPGAPSPQHTDQTEAFQKGVPHPEDDHSQVEGPESLR [PDXDC1]”, the melting temperature was 47.8 °C with HeLa Kyoto [1] (cell cycle stage: G1/S) and 48.8 °C in the series on HeLa Kyoto [1] (cell cycle stage: mitosis). In the series on HeLa Kyoto [2], the “solubility change mitosis (log2)” value was -0.152. Moreover, the figures for the thermal stability score in the series on HeLa Kyoto [3] (setting [5]) and in the series on HeLa Kyoto [3] (cell cycle stage: mitosis) were 1.35 and 2.61, respectively. The “solubility in G1/S (log2)” value in the series with HeLa Kyoto [4] stood at 0.342.

For the substance CHD3, the melting temperature stood at 46.5 °C in the series with HeLa Kyoto [1] (cell cycle stage: G1/S) and 49.1 °C with HeLa Kyoto [1] (cell cycle stage: mitosis). Also, the “solubility change mitosis (log2)” value with HeLa Kyoto [2] came out at 0.14. Further, the thermal stability score was 0.67 with HeLa Kyoto [3] (setting [5]) and 1.73 in the series with HeLa Kyoto [3] (cell cycle stage: mitosis). Further, the “solubility in G1/S (log2)” value in the series on HeLa Kyoto [4] was -0.643.

Regarding “MADTQYILPNDIGVSSLDCREAFRLLSPTERLYAYHLSRAAWYGGLAVLLQTSPEAPYIYALLSRLFRAQDPDQLRQHALAEGLTEEEYQAFLVYAAGVYSNMGNYKSFGDTKFVPNLPKEKLERVILGSEAAQQHPEEVRGLWQTCGELMFSLEPRLRHLGLGKEGITTYFSGNCTMEDAKLAQDFLDSQNLSAYNTRLFKEVDGEGKPYYEVRLASVLGSEPSLDSEVTSKLKSYEFRGSPFQVTRGDYAPILQKVVEQLEKAKAYAANSHQGQMLAQYIESFTQGSIEAHKRGSRFWIQDKGPIVESYIGFIESYRDPFGSRGEFEGFVAVVNKAMSAKFERLVASAEQLLKELPWPPTFEKDKFLTPDFTSLDVLTFAGSGIPAGINIPNYDDLRQTEGFKNVSLGNVLAVAYATQREKLTFLEEDDKDLYILWKGPSFDVQVGLHELLGHGSGKLFVQDEKGAFNFDQETVINPETGEQIQSWYRSGETWDSKFSTIASSYEECRAESVGLYLCLHPQVLEIFGFEGADAEDVIYVNWLNMVRAGLLALEFYTPEAFNWRQAHMQARFVILRVLLEAGEGLVTITPTTGSDGRPDARVRLDRSKIRSVGKPALERFLRRLQVLKSTGDVAGGRALYEGYATVTDAPPECFLTLRDTVLLRKESRKLIVQPNTRLEGSDVQLLEYEASAAGLIRSFSERFPEDGPELEEILTQLATADARFWKGPSEAPSGQA [DPP3]”, the melting temperature with HeLa Kyoto [1] (cell cycle stage: G1/S) was 53.8 °C; with HeLa Kyoto [1] (cell cycle stage: mitosis), 53 °C. The “solubility change mitosis (log2)” value in the series with HeLa Kyoto [2] is -0.14. The thermal stability score is -0.363 with HeLa Kyoto [3] (setting [5]) and -1.69 with HeLa Kyoto [3] (cell cycle stage: mitosis). The “solubility in G1/S (log2)” value with HeLa Kyoto [4] amounted to 0.153.
